From patent CN117756939A

Molecular target: 人源LILRB1 (human LILRB1, on HEK293T-hLILRB1, Jurkat-hLILRB1 or Daudi cells) (human)
Assay: flow cytometry, blocking of PE-HLA-G tetramer (2 μg/mL) binding to HEK293T-hLILRB1 cells

IC50: 0.021 µg/mL
Substance: BION-202 (Biond Biologics公司研发的靶向LILRB1人源化IgG4单克隆抗体) (antibody)
